Assay results taken from publication PMC5147862.

Molecular target: KRAS, mGppNHp-bound (human) (UniProt P01116)
Test: fluorescence polarisation; MBP-tagged effector domain (0.05-100 μM) titrated to 1 μM RAS-mGppNHp; 50 mM Tris/HCl pH 7.5, 100 mM NaCl, 5 mM MgCl2, 3 mM dithiothreitol, 25°C; quadratic ligand binding equation

B1: RAS association (RA) domain of RASSF5, MBP fusion (domain or fragment)
chain: EETQRPPTLQEIKQKIDSYNTREKNCLGMKLSEDGTYTGFIKVHLKLRRPVTVPAGIRPQSIYDAIKEVNLAATTDKRTSFYLPLDAIKQLHISSTTTVSEVIQGLLKKFMVVDNPQKFALFKRIHKDGQVLFQKLSIADRPLYLRLLAGPDTEVLSFV
  Kd: 421 nM
